In US9580731B2, “Methods of producing 7-carbon chemicals via c1 carbon chain elongation associated with coenzyme B synthesis” (INVISTA North America S.á r.l., priority 2012, dated 2017):

B1: SEQ ID NO 13: Vibrio fluvialis ω-transaminase, Genbank Accession No. AEA39183.1 (protein, listed as Vibrio fluvialis)
chain: MNKPQSWEARAETYSLYGFTDMPSLHQRGTVVVTHGEGPYIVDVNGRRYLDANSGLWNMVAGFDHKGLIDAAKAQYERFPGYHAFFGRMSDQTVMLSEKLVEVSPFDSGRVFYTNSGSEANDTMVKMLWFLHAAEGKPQKRKILTRWNAYHGVTAVSASMTGKPYNSVFGLPLPGFVHLTCPHYWRYGEEGETEEQFVARLARELEETIQREGADTIAGFFAEPVMGAGGVIPPAKGYFQAILPILRKYDIPVISDEVICGFGRTGNTWGCVTYDFTPDAIISSKNLTAGFFPMGAVILGPELSKRLETAIEAIEEFPHGFTASGHPVGCAIALKAIDVVMNEGLAENVRRLAPRFEERLKHIAERPNIGEYRGIGFMWALEAVKDKASKTPFDGNLSVSERIANTCTDLGLICRPLGQSVVLCPPFILTEAQMDEMFDKLEKALDKVFAEVA
B2: SEQ ID NO 8: Chromobacterium violaceum ω-transaminase, Genbank Accession No. AAQ59697.1 (protein, listed as Chromobacterium violaceum)
chain: MQKQRTTSQWRELDAAHHLHPFTDTASLNQAGARVMTRGEGVYLWDSEGNKIIDGMAGLWCVNVGYGRKDFAEAARRQMEELPFYNTFFKTTHPAVVELSSLLAEVTPAGFDRVFYTNSGSESVDTMIRMVRRYWDVQGKPEKKTLIGRWNGYHGSTIGGASLGGMKYMHEQGDLPIPGMAHIEQPWWYKHGKDMTPDEFGVVAARWLEEKILEIGADKVAAFVGEPIQGAGGVIVPPATYWPEIERICRKYDVLLVADEVICGFGRTGEWFGHQHFGFQPDLFTAAKGLSSGYLPIGAVFVGKRVAEGLIAGGDFNHGFTYSGHPVCAAVAHANVAALRDEGIVQRVKDDIGPYMQKRWRETFSRFEHVDDVRGVGMVQAFTLVKNKAKRELFPDFGEIGTLCRDIFFRNNLIMRACGDHIVSAPPLVMTRAEVDEMLAVAERCLEEFEQTLKARGLA
B3: SEQ ID NO 10: Pseudomonas syringae ω-transaminase, Genbank Accession No. AAY39893.1 (protein, listed as Pseudomonas syringae)
chain: MSANNPQTLEWQALSSEHHLAPFSDYKQLKEKGPRIITRAEGVYLWDSEGNKILDGMSGLWCVAIGYGREELADAASKQMRELPYYNLFFQTAHPPVLELAKAISDIAPEGMNHVFFTGSGSEGNDTMLRMVRHYWALKGQPNKKTIISRVNGYHGSTVAGASLGGMTYMHEQGDLPIPGVVHIPQPYWFGEGGDMTPDEFGIWAAEQLEKKILELGVENVGAFIAEPIQGAGGVIVPPDSYWPKIKEILSRYDILFAADEVICGFGRTSEWFGSDFYGLRPDMMTIAKGLTSGYVPMGGLIVRDEIVAVLNEGGDFNHGFTYSGHPVAAAVALENIRILREEKIVERVRSETAPYLQKRLRELSDHPLVGEVRGVGLLGAIELVKDKTTRERYTDKGAGMICRTFCFDNGLIMRAVGDTMIIAPPLVISFAQIDELVEKARTCLDLTLAVLQG

Tests used:
Type in all cases: biochemical
[1] = ω-transaminase activity assay, reverse direction, 7-aminoheptanoate to pimelate semialdehyde; conditions: cell free extract, 10 mM 7-aminoheptanoate, 10 mM pyruvate, 25° C., 4 h, against empty vector control, FIG. 15
Method: (§1) A sequence encoding an N-terminal His-tag was added to the genes from Chromobacterium violaceum, Pseudomonas syringae, Rhodobacter sphaeroides, and Vibrio Fluvialis encoding the ω-transaminases of SEQ ID NOs: 8, 10, 11 and 13, respectively (see FIG. 7) such that N-terminal HIS tagged ω-transaminases could be produced. Each of the resulting modified genes was cloned into a pET21a expression vector under control of the T7 promoter and each expression vector was transformed into a BL21[DE3] E. coli host. The resulting recombinant E. coli strains were cultivated at 37° C. in a 250 mL shake flask culture containing 50 mL LB media and antibiotic selection pressure, with shaking at 230 rpm. Each culture was induced overnight at 16° C. using 1 mM IPTG.
(§2) The pellet from each induced shake flask culture was harvested via centrifugation. Each pellet was resuspended and lysed via sonication. The cell debris was separated from the supernatant via centrifugation and the cell free extract was used immediately in enzyme activity assays.
Enzyme activity assays in the reverse direction (i.e., 7-aminoheptanoate to pimelate semialdehyde) were performed in a buffer composed of a final concentration of 50 mM HEPES buffer (pH=7.5), 10 mM 7-aminoheptanoate, 10 mM pyruvate and 100 μM pyridoxyl 5′ phosphate. Each enzyme activity assay reaction was initiated by adding cell free extract of the ω-transaminase gene product or the empty vector control to the assay buffer containing the 7-aminoheptanoate and incubated at 25° C. for 4 h, with shaking at 250 rpm. The formation of L-alanine from pyruvate was quantified via RP-HPLC.

[2] = ω-transaminase activity assay, forward direction, pimelate semialdehyde to 7-aminoheptanoate; conditions: for ω-transaminase activity for converting pimelate semialdehyde to 7-aminoheptanoate (L-alanine to pyruvate): cell free extract, 10 mM pimelate semialdehyde, 10 mM L-alanine, 25° C., 4 h, against empty vector control, FIG. 16; for reversibility of the ω-transaminase activity: pimelate semialdehyde accepted, 7-aminoheptanoate synthesized: conclusion from forward and reverse assays of Example 2
Method: as §1, §2
Enzyme activity in the forward direction (i.e., pimelate semialdehyde to 7-aminoheptanoate) was confirmed for the transaminases of SEQ ID NO 10, SEQ ID NO 11 and SEQ ID NO 13. Enzyme activity assays were performed in a buffer composed of a final concentration of 50 mM HEPES buffer (pH=7.5), 10 mM pimelate semialdehyde, 10 mM L-alanine and 100 μM pyridoxyl 5′ phosphate. Each enzyme activity assay reaction was initiated by adding a cell free extract of the ω-transaminase gene product or the empty vector control to the assay buffer containing the pimelate semialdehyde and incubated at 25° C. for 4 h, with shaking at 250 rpm. The formation of pyruvate was quantified via RP-HPLC.

[3] = ω-transaminase activity assay, 7-aminoheptanol to 7-oxoheptanol; conditions: for ω-transaminase activity for converting 7-aminoheptanol to 7-oxoheptanol (pyruvate to L-alanine): cell free extract, 10 mM 7-aminoheptanol, 10 mM pyruvate, 25° C., 4 h, against empty vector control, FIG. 19; for ω-transaminase acceptance of 7-oxoheptanol, forming 7-aminoheptanol: concluded from reversibility of the ω-transaminase activity (Example 2)
Method: A nucleotide sequence encoding an N-terminal His-tag was added to the Chromobacterium violaceum, Pseudomonas syringae and Rhodobacter sphaeroides genes encoding the ω-transaminases of SEQ ID NOs: 8, 10 and 11, respectively (see FIG. 7) such that N-terminal HIS tagged ω-transaminases could be produced. The modified genes were cloned into a pET21a expression vector under the T7 promoter. Each expression vector was transformed into a BL21[DE3] E. coli host. Each resulting recombinant E. coli strain were cultivated at 37° C. in a 250 mL shake flask culture containing 50 mL LB media and antibiotic selection pressure, with shaking at 230 rpm. Each culture was induced overnight at 16° C. using 1 mM IPTG.
as §2
Enzyme activity assays in the reverse direction (i.e., 7-aminoheptanol to 7-oxoheptanol) were performed in a buffer composed of a final concentration of 50 mM HEPES buffer (pH=7.5), 10 mM 7-aminoheptanol, 10 mM pyruvate, and 100 μM pyridoxyl 5′ phosphate. Each enzyme activity assay reaction was initiated by adding cell free extract of the ω-transaminase gene product or the empty vector control to the assay buffer containing the 7-aminoheptanol and then incubated at 25° C. for 4 h, with shaking at 250 rpm. The formation of L-alanine was quantified via RP-HPLC.

Molecule	ω-transaminase activity for converting 7-aminoheptanoate to pimelate semialdehyde (pyruvate to L-alanine) [1]	ω-transaminase activity for converting pimelate semialdehyde to 7-aminoheptanoate (L-alanine to pyruvate) [2]	reversibility of the ω-transaminase activity: pimelate semialdehyde accepted, 7-aminoheptanoate synthesized [2]	ω-transaminase activity for converting 7-aminoheptanol to 7-oxoheptanol (pyruvate to L-alanine) [3]	ω-transaminase acceptance of 7-oxoheptanol, forming 7-aminoheptanol [3]
SEQ ID NO 11: Rhodobacter sphaeroides ω-transaminase, Genbank Accession No. ABA81135.1	accepted 7-aminoheptanote as substrate	accepted pimelate semialdehyde as substrate	accepted pimelate semialdehyde as substrate and synthesized 7-aminoheptanoate	accepted 7-aminoheptanol as substrate	accept 7-oxoheptanol as substrate
B1	accepted 7-aminoheptanote as substrate	accepted pimelate semialdehyde as substrate	accepted pimelate semialdehyde as substrate and synthesized 7-aminoheptanoate	–	–
B2	accepted 7-aminoheptanote as substrate	–	accepted pimelate semialdehyde as substrate and synthesized 7-aminoheptanoate	accepted 7-aminoheptanol as substrate	accept 7-oxoheptanol as substrate
B3	accepted 7-aminoheptanote as substrate	accepted pimelate semialdehyde as substrate	accepted pimelate semialdehyde as substrate and synthesized 7-aminoheptanoate	accepted 7-aminoheptanol as substrate	accept 7-oxoheptanol as substrate
